Literature values, collected in article PMC12582428.
Read-outs that look alike come from different tables or passages of the source.

Experiments:
[1] = target: Neuropeptide Y (Homo sapiens) (UniProt P01303)
[2] = target: Neuropeptide Y (Homo sapiens) (UniProt P01303); remark: listed apart in the source

Chain of Neuropeptide Y receptor Y1 (P25929 whole entry): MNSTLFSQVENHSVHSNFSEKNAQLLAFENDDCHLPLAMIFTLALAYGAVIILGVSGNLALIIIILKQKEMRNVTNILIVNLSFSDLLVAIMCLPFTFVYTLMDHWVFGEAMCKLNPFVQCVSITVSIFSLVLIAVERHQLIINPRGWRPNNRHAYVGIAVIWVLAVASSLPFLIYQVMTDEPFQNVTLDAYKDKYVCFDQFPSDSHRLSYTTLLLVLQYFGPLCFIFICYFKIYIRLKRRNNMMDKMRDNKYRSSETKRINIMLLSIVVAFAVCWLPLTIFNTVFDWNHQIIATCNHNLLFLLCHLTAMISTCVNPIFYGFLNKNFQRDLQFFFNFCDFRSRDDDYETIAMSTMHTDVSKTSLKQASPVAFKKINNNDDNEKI
Chain of Neuropeptide Y receptor Y2 (P49146 whole entry): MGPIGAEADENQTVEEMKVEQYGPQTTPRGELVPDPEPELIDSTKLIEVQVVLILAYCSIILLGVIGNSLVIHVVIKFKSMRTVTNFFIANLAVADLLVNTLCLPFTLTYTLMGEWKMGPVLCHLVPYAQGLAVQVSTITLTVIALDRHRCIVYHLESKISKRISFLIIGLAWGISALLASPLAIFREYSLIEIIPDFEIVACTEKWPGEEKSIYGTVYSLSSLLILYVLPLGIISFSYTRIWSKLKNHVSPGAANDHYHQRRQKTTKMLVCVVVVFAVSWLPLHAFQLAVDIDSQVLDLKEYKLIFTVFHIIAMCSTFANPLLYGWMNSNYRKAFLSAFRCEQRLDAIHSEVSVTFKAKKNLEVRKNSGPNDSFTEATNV

Row | Kd [1] | Kd [2] | Substance
1 | 4 nM | – | Neuropeptide Y receptor Y1 (from UniProt P25929)
2 | – | 0.12 nM | Neuropeptide Y receptor Y2 (from UniProt P49146)
